# Experiments:
# human IL-4R = human IL-4R (human, UniProt P24394 26-825); test: cell-based or functional assay
# IL-4R-ECD-FLAG [1] = molecular target: T1, IL-4R-ECD-FLAG (human, UniProt P24394 26-232); test: SPR, Biacore T200; antibody captured on Protein A/G CM5 chip, IL-4R-ECD-FLAG injected
# T1 construct: Expressed in HEK293, purified on an anti-FLAG column; also called IL-4R antigen; human IL-4R; not shown: FLAG tag added to the end of the IL-4R-ECD coding region
# Experimental: Next cycle was repeated after eluting the chip with 6M guanidine hydrochloride regeneration buffer. The data was analyzed using Biacore T200 Evaluation Software.
# IL-4R-ECD-FLAG [2] = molecular target: T1, IL-4R-ECD-FLAG; test: ELISA on coated IL-4R-ECD-FLAG (100 ng/ml), HRP goat anti-human secondary
# Biotinated IL-4R-ECD-hFc = molecular target: T2, Biotinated IL-4R-ECD-hFc (human, UniProt P24394 26-232, biotinylated with Biotin N-hydroxysuccinimide ester (sites not given)); test: blocking ELISA: coated IL-4-hFc (2000 ng/ml), biotinylated IL-4R-ECD-hFc (100 ng/ml) with antibody in dilution series, Streptavidin-HRP
# T2 construct: also called biotinylated IL-4R-ECD-hFc; not shown: hFc (IgG1) tag
# Experimental: The plate was washed with phosphate buffer containing 0.05% Tween-20 (PBST) and blocked by adding PBST containing 1% bovine serum albumin to each well. Then the plate was washed with PBST. […] The plate was washed with PBST. Streptavidin-HRP which was diluted with PBST containing 1% BSA at a dilution ratio of 1:1000 was added at 100 μl/well and incubated at 37° C. for 30 min. Chromogenic solution (TMB substrate solution) was added at 100 μl/well, and incubated at room temperature for 1˜5 min; then 50 μl/well of the stop solution was added to stop the color reaction. OD450 values were read with a microplate reader and GraphPad Prism6 was used to analyze data, prepare graphs, and calculate IC50.
Binder,"IC50 of inhibition of IL-4-induced CD23 expression by PBMC, first experiment (human IL-4R)","IC50 of inhibition of IL-4-induced CD23 expression by PBMC, second experiment (human IL-4R)","IC50 of inhibition of IL-4-induced IgE secretion by PBMC, first experiment (human IL-4R)","IC50 of inhibition of IL-4-induced IgE secretion by PBMC, second experiment (human IL-4R)","IC50 of inhibition of IL-4-induced TF-1 cell proliferation, first experiment (human IL-4R)","IC50 of inhibition of IL-4-induced TF-1 cell proliferation, second experiment (human IL-4R)","IC50 of inhibition of IL-4-induced TF-1 cell proliferation, third experiment (human IL-4R)",IC50 of inhibition of IL-13-induced TF-1 cell proliferation (human IL-4R),Kd (IL-4R-ECD-FLAG [1]),koff (IL-4R-ECD-FLAG [1]),kon (IL-4R-ECD-FLAG [1]),EC50 (IL-4R-ECD-FLAG [2]),IC50 (Biotinated IL-4R-ECD-hFc),IC50 of inhibition of IL-4-induced TF-1 cell proliferation (human IL-4R)
"4-2-Humanized-IgG1 (antibody, expressed in HEK293E; also called humanized antibody 4-2-Humanized-IgG1) heavy: not shown light: DIQMTQSPSSLSASVGDRVTITCRASSSINYMHWYQQKPGKAPKPWIYAASNLASGVPSRFSGSGSGTDFTLTISSLQPEDFATYYCQQWSSYPITFGQGTKVEIKRTVAAPSVFIFPPSDEQLKSGTASVVCLLNNFYPREAKVQWKVDNALQSGNSQESVTEQDSKDSTYSLSSTLTLSKADYEKHKVYACEVTHQGLSSPVTKSFNRGEC",0.0294 µg/mL,0.00356 µg/mL,0.448 µg/mL,0.0613 µg/mL,0.561 µg/mL,0.427 µg/mL,0.52 µg/mL,0.0343 µg/mL,0.717 nM,0.000133 s⁻¹,186000 M⁻¹ s⁻¹,0.0124 µg/mL,0.138 µg/mL,
"4-2-Chimeric-IgG1 (antibody, V domains shown, also called chimeric antibody 4-2-Chimeric-IgG1) VH: QVQLQQSGPELVKPGASVKISCTASGSTLTDDYINWVKQRPGRGLEWVGWIFPGNGNSYYNEKFKDKATLIVDKSSSTAYMLLSSLTSEDSAVYFCARGLVRYRALFDYWGQGTTLTVSS VL: QIVLSQSPAILSASPGEKVTMTCRASSSINYMHWYQQKPGSSPKPWIYAASNLASGVPARFSGSGSGTSFSLTISRVEAEDAATYYCQQWSSYPITFGSGTKLEIK",,,,,,,,0.0816 µg/mL,,,,0.0118 µg/mL,,0.225 µg/mL

# The next lines start with the values.
"IC50 of inhibition of IL-4-induced CD23 expression by PBMC, first experiment (human IL-4R)","IC50 of inhibition of IL-4-induced CD23 expression by PBMC, second experiment (human IL-4R)","IC50 of inhibition of IL-4-induced IgE secretion by PBMC, first experiment (human IL-4R)","IC50 of inhibition of IL-4-induced IgE secretion by PBMC, second experiment (human IL-4R)","IC50 of inhibition of IL-4-induced TF-1 cell proliferation, first experiment (human IL-4R)","IC50 of inhibition of IL-4-induced TF-1 cell proliferation, second experiment (human IL-4R)","IC50 of inhibition of IL-4-induced TF-1 cell proliferation, third experiment (human IL-4R)",IC50 of inhibition of IL-13-induced TF-1 cell proliferation (human IL-4R),Kd (IL-4R-ECD-FLAG [1]),koff (IL-4R-ECD-FLAG [1]),kon (IL-4R-ECD-FLAG [1]),EC50 (IL-4R-ECD-FLAG [2]),IC50 (Biotinated IL-4R-ECD-hFc),IC50 of inhibition of IL-4-induced TF-1 cell proliferation (human IL-4R),Binder
0.0909 µg/mL,0.0206 µg/mL,0.996 µg/mL,0.189 µg/mL,0.842 µg/mL,0.616 µg/mL,0.687 µg/mL,0.0738 µg/mL,,,,,,,"Dupilumab (antibody, V domains shown) VH: EVQLVESGGGLEQPGGSLRLSCAGSGFTFRDYAMTWVRQAPGKGLEWVSSISGSGGNTYYADSVKGRFTISRDNSKNTLYLQMNSLRAEDTAVYYCAKDRLSITIRPRYYGLDVWGQGTTVTVSS VL: DIVMTQSPLSLPVTPGEPASISCRSSQSLLYSIGYNYLDWYLQKSGQSPQLLIYLGSNRASGVPDRFSGSGSGTDFTLKISRVEAEDVGFYYCMQALQTPYTFGQGTKLEIKR"
0.232 µg/mL,0.034 µg/mL,1.95 µg/mL,0.413 µg/mL,1.29 µg/mL,1.11 µg/mL,1.15 µg/mL,,0.692 nM,0.00013 s⁻¹,188000 M⁻¹ s⁻¹,,0.14 µg/mL,2.78 µg/mL,"4-2-Humanized-IgG4 (antibody, also called 4-2-Hu-IgG4) heavy: not shown light: DIQMTQSPSSLSASVGDRVTITCRASSSINYMHWYQQKPGKAPKPWIYAASNLASGVPSRFSGSGSGTDFTLTISSLQPEDFATYYCQQWSSYPITFGQGTKVEIKRTVAAPSVFIFPPSDEQLKSGTASVVCLLNNFYPREAKVQWKVDNALQSGNSQESVTEQDSKDSTYSLSSTLTLSKADYEKHKVYACEVTHQGLSSPVTKSFNRGEC"
0.0074 µg/mL,0.00049 µg/mL,0.0508 µg/mL,0.0266 µg/mL,,,,,,,,,0.144 µg/mL,0.292 µg/mL,"4-2-Humanized-IgG1-SELF (antibody, also called SELF mutant of anti-human IL-4R humanized antibody) heavy: not shown light: DIQMTQSPSSLSASVGDRVTITCRASSSINYMHWYQQKPGKAPKPWIYAASNLASGVPSRFSGSGSGTDFTLTISSLQPEDFATYYCQQWSSYPITFGQGTKVEIKRTVAAPSVFIFPPSDEQLKSGTASVVCLLNNFYPREAKVQWKVDNALQSGNSQESVTEQDSKDSTYSLSSTLTLSKADYEKHKVYACEVTHQGLSSPVTKSFNRGEC"

# From patent publication US20210206861A1 (SUNSHINE GUOJIAN PHARMACEUTICAL SHANGHAI, published 2021)
